# Laboratory results reported in paper PMC4955127 (Biotechnology for Biofuels, 2016).
# T1: Bgl3A (Evansstolkia leycettana, UniProt A0A1B0VFN7)
# T1 construct: mature enzyme without native signal peptide (residues 1-19 of 737 removed)
# T1 sequence (A0A1B0VFN7 20-737): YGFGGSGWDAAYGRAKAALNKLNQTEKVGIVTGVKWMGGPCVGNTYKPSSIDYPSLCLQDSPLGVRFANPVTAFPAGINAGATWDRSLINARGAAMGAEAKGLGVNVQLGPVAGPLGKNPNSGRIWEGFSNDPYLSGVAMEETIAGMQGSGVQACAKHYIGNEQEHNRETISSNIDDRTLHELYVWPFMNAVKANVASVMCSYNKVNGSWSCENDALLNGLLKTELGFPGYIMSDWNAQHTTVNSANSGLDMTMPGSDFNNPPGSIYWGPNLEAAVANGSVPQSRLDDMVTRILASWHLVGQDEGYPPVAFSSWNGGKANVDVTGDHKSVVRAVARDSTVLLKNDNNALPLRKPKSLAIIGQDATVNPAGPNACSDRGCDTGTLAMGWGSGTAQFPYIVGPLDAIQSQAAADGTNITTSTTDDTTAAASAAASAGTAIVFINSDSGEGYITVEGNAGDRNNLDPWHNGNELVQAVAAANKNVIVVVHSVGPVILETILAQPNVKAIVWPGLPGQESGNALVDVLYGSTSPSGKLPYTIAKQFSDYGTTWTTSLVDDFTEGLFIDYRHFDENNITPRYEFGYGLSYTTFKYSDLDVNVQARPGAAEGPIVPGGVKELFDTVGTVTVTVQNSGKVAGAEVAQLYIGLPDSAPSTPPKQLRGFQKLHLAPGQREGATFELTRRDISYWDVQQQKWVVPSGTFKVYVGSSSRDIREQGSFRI
# B1: Bgl3A (Evansstolkia leycettana) (protein)
# chain: T1 sequence (A0A1B0VFN7 20-737)
# Tests used:
# Bgl3A = target: T1, Bgl3A; experiment: glucose inhibition of pNPG hydrolysis; type: biochemical; details: product inhibition; substrate pNPG
# purified protein = substrate: O=[N+]([O-])c1ccc(O[C@@H]2O[C@H](CO)[C@@H](O)[C@H](O)[C@H]2O)cc1; experiment: purified protein; details: 100 mM Na2HPO4-citric acid, optimal conditions (pH 4.5, 75 °C), 5 min
Molecule,Ki (Bgl3A) [mM],Km (purified protein) [µM],Vmax (purified protein) [µmol/min/mg],kcat (purified protein) [s⁻¹],kcat/Km (purified protein) [M⁻¹ s⁻¹]
OC[C@H]1OC(O)[C@H](O)[C@@H](O)[C@@H]1O (some centres unmarked) [glucose],14,,,,
B1,,180,1310,1660,9.1e+06
